Measured values as given in patent publication US20170022277A1 (NATIONAL RESEARCH COUNCIL OF CANADA, published 2017).

Key:
[1] = biological target: T1, recombinant human IGF1R extracellular fragment IGF1R^933-His (human, UniProt P08069 31-933); experiment: SPR (BIACORE 3000), human IGF1R immobilized on CM5, 1:1 model
T1 construct: It holds the full alpha subunit, the furin site RKRR and most of the extracellular part of the beta subunit; Amine-coupled to a CM5 chip for SPR; also called recombinant extracellular portion of the human IGF1R fragment; not shown: His tag from pCDN4/myc-His vector
Experimental: Approximately 3000 Resonance Units (RU) of recombinant human IGF1R were immobilized on a Sensor chip CM5. Immobilization was carried out at a concentration of 10 μg/ml in 10 mM acetate at pH4.0 using the amine coupling kit supplied by the manufacturer. The remaining binding sites were blocked with 1 M ethanolamine pH 8.5. An ethanolamine blocked surface was used as a reference surface. For the binding studies, analyses were carried out at 25° C. in 10 mM HEPES, pH7.4 containing 150 mM NaCl, 3 mM EDTA and 0.005% surfactant P20 (Polyoxyethylenesorbitan; GE Healthcare). […] Surfaces were regenerated with 10 mM glycine pH 2.0 with a contact time of 24 seconds. Data were analyzed with BIAevaluation 4.1 software (GE Healthcare).

[2] = biological target: T2, recombinant human Insulin Receptor (R&D systems) (human, UniProt P06213-2 28-944, limits assumed); experiment: SPR, IGF1R-4 VHH (0.5 - 50nM) over immobilized recombinant human Insulin Receptor
T2 construct: extracellular domain; Bought protein; About 4000 RU immobilized on a CM5 chip; also called IR; recombinant extracellular portion of the human Insulin Receptor
T2 sequence (P06213 other isoform, or with tags, fused parts or gaps limits assumed): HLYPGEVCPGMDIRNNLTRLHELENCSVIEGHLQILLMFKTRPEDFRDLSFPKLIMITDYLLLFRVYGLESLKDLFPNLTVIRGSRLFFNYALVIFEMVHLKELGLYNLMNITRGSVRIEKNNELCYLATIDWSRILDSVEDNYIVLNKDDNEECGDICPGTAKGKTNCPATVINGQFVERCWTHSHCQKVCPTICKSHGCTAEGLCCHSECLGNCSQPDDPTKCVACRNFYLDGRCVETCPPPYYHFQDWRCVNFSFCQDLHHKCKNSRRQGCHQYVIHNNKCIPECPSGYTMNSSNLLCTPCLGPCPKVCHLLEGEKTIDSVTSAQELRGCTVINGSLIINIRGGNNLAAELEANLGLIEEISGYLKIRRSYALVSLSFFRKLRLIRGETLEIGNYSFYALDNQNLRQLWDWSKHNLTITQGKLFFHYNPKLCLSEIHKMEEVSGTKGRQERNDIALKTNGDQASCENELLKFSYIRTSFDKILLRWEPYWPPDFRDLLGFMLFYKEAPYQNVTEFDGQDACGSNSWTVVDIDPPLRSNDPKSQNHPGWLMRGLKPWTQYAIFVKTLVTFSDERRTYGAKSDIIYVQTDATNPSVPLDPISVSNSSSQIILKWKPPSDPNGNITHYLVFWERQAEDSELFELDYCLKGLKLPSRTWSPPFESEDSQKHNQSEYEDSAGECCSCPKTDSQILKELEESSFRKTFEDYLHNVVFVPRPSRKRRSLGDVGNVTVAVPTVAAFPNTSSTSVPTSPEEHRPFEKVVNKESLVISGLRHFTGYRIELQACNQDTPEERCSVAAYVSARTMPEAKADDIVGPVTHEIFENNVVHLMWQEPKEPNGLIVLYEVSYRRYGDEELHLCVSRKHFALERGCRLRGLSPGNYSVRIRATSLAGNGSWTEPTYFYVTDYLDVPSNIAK

T1 sequence (P08069 31-933): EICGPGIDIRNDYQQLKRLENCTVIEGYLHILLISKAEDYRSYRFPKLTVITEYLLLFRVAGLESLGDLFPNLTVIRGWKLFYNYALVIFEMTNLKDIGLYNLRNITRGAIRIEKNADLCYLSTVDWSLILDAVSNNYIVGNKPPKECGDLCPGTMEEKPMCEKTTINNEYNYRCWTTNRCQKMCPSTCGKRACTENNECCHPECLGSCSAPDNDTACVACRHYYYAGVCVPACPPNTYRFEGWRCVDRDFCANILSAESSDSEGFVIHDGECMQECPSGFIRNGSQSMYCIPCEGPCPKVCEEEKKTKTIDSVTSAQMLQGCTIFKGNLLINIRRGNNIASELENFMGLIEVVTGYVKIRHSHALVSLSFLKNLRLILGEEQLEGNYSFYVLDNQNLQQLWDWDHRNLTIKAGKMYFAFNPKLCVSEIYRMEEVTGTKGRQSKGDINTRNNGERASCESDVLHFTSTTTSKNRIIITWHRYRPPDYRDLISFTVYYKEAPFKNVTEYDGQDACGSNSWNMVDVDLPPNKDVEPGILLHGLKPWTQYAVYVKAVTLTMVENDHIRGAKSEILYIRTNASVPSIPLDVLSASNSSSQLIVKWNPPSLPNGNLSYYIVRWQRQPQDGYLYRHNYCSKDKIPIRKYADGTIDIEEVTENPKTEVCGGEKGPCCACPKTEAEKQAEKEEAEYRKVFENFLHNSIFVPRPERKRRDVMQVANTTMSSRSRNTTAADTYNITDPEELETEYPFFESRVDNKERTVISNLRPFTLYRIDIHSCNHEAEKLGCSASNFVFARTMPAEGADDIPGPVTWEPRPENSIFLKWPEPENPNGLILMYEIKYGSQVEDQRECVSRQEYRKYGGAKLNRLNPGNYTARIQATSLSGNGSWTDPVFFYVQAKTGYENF

Binder | Kd [1] | koff [1] | binding result [2]
IGF1R-4_H4 (VHH, Humanized variant of IGF1R-4; expressed from pSJF2H in E. coli and purified by IMAC; any vector tag is not described) VHH: QVQLVESGGGLVQPGGSLRLSCAVSGGTVSPTAMGWFRQAPGKGLEFVGHITWSRGTTRYASSVKGRFTISRDSSKNTVYLQMNSLRAEDTAVYYCAASTFLRILPEESAYTYWGQGTLVTVSS | 0.45 nM | 0.00039 s⁻¹ | 
IGF1R-4 VHH (VHH, Llama VHH, monomeric; Expressed from pSJF2H in TG1 E. coli and purified by IMAC; also called anti-IGF1R VHH IGF1R-4) VHH: QVKLEESGGGLVQAGGSLRLSCEVSGGTVSPTAMGWFRQAPGKEREFVGHITWSRGTTRVASSVKDRFTISRDSAKNTVYLQMNSLKSEDTAVYYCAASTFLRILPEESAYTYWGQGTQVTVSS | 0.32 nM | 0.00029 s⁻¹ | no binding (tested: 50 nM)
IGF1R-4_H2 (VHH, Humanized variant of IGF1R-4; expressed from pSJF2H in E. coli and purified by IMAC; any vector tag is not described) VHH: QVQLVESGGGLVQPGGSLRLSCAVSGGTVSPTAMGWVRQAPGKGLEWVGHITWSRGTTRYASSVKGRFTISRDNSKNTVYLQMNSLRAEDTAVYYCAASTFLRILPEESAYTYWGQGTLVTVSS | 1.07 nM | 0.00061 s⁻¹ | 
IGF1R-4_H3 (VHH, Humanized variant of IGF1R-4; expressed from pSJF2H in E. coli and purified by IMAC; any vector tag is not described) VHH: QVQLVESGGGLVQPGGSLRLSCAVSGGTVSPTAMGWFRQAPGKGLEFVGHITWSRGTTRYASSVKGRFTISRDNSKNTVYLQMNSLRAEDTAVYYCAASTFLRILPEESAYTYWGQGTLVTVSS | 0.39 nM | 0.00034 s⁻¹ | 
IGF1R-4_H5 (VHH, Humanized variant of IGF1R-4; expressed from pSJF2H in E. coli and purified by IMAC; any vector tag is not described) VHH: QVQLVESGGGLVQPGGSLRLSCAVSGGTVSPTAMGWFRQAPGKEREFVGHITWSRGTTRYASSVKGRFTISRDSSKNTVYLQMNSLRAEDTAVYYCAASTFLRILPEESAYTYWGQGTLVTVSS | 0.52 nM | 0.00046 s⁻¹ | 
